Reference: patent US20240254229A1 (Molecular Partners, published 2024)

T1: biotinylated extracellular domain of human CD123 (SEQ ID NO: 88), Fc and Avi tagged (human, UniProt P26951 19-303, biotinylated with BirA-GST (Avi tag))
T1 construct: also called hCD123
T1 sequence: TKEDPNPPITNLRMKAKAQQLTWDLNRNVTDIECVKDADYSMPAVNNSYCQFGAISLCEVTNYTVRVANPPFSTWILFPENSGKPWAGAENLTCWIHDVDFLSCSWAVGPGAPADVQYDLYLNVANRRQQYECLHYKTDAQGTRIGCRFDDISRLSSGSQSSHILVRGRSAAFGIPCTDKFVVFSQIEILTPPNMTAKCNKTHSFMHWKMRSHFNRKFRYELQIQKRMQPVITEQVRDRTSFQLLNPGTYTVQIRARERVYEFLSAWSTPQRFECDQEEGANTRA

T2: extracellular domain of human CD70 (SEQ ID NO: 89), hCD70-Fc-trimer, ACRO Biosystems (human, UniProt P32970 52-193, chemically biotinylated where the biotinylated form was used)
T2 construct: also called human CD70-Fc-trimer; Bio.CD70
T2 sequence: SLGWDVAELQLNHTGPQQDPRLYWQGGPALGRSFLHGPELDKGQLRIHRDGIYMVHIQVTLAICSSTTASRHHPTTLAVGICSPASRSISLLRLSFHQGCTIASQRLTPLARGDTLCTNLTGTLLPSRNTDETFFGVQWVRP


Columns and labels:
[1] = target: T3, Molm-13 N1 tumor cells (carrying CD123, CD33 and CD70) (human, UniProt P20138 18-364; P26951 19-378; P32970 1-193); experiment: flow cytometry on Molm-13 N1 cells, 20 uM HSA
T3 construct: whole, on cells; Not a complex: three separate antigens on one cell; also called Molm-13 N1 cells
T3 sequence (P20138 18-364, one chain of several): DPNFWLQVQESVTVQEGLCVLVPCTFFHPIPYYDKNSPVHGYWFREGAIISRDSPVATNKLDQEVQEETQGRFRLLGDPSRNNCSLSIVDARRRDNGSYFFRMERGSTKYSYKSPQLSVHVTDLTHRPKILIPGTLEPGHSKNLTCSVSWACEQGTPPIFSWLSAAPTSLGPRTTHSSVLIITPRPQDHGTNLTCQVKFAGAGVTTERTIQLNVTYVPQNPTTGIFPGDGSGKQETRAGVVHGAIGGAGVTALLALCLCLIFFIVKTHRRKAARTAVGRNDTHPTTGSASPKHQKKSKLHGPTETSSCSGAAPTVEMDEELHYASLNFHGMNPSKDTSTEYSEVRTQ
Procedure: The determination of binding of several multispecific proteins to tumor cells was performed by Fluorescence Activated Cell Sorting (FACS) flow cytometry. Therefore, tumor cells (Molm-13 N1), were seeded at 100′000 cells per well in a 96 well plate. DARPin® protein #56, DARPin® protein #57, DARPin® protein #58, DARPin® protein #59, DARPin® protein #60, DARPin® protein #61 and DARPin® protein #62 were titrated down starting at 100 nM in 1:5 dilution ratio. Tumor cells were resuspended with diluted DARPin® proteins and incubated 60 minutes at 4° C. The assay was performed in PBS including 2% fetal bovine serum and human serum albumin 20 uM (HSA). After washing twice with Phosphate Buffer saline (PBS), DARPin® protein specific tumor cell binding was detected by adding unlabelled primary […] (anti-rabbit 1-1-1 antibody, CePower) at 2 ug/ml. An incubation step of at least 30 minutes at 4° C. followed. Afterwards, cells were washed with PBS and a secondary anti-rabbit antibody labelled with Alexa Fluor 647 antibody (ThermoFisher) at 2 ug/ml was added. The same incubation conditions applied. Finally, the cells were washed twice and resuspended in Cytofix fixation buffer (BD Biosciences) for 15 min at room temperature (RT). Median fluorescence intensities (MFI) of Alexa Fluor 647 DARPin® labelled cells were measured by Attune NxT (Thermo Fisher) using FlowJo software for analyses and GraphPad Prism 8 for data plotting.

[2] = target: T1, biotinylated extracellular domain of …; experiment: SPR (ProteOn XPR36), target on GLC chip
Description: (§1) For that, DARPin® protein #27, DARPin® protein #29, DARPin® protein #47 and DARPin® protein #48 and DARPin® protein #49, DARPin® protein #50, DARPin® protein #51, DARPin® protein #52, DARPin® protein #31, DARPin® protein #53, DARPin® protein #54, DARPin® protein #55, DARPin® protein #34, DARPin® protein #33, DARPin® protein #39 and DARPin® protein #36 were subcloned and expressed as described above into derivatives of the pQE30 (Qiagen) expression vector, containing an N-terminal His-tag, CD33, CD123 and/or CD70 binding ankyrin repeat domains, followed by a CD3 specific ankyrin repeat domain and for some constructs by a human serum albumin specific ankyrin repeat domain.
(§2) Briefly, biotinylated human CD70, CD123 and CD33 was diluted in PBST (PBS, pH 7.4 containing 0.005% Tween 20®) and coated on a GLC chip (BioRad) to a level of around 200, 460 and 450 resonance units (RU) respectively. HSA in NaOAc pH 5.0 was directly immobilized on the GLC chip to a level of 800 RU. Bio.CD70, bio. CD33 and bio. CD123 required to have Neutravidin coated first to a level of 6000 RU before the biotinylated targets could be applied. The interaction of the selected ankyrin repeat proteins and human CD70, CD123 and CD33 was then measured by injecting 300 μl running buffer (PBS, pH 7.4 containing 0.005% Tween 20®) containing serial dilutions of ankyrin repeat proteins covering a concentration range between 100 nM and 2.6 nM (100, 40, 16, 6.4 and 2.6 nM respectively) for multi-trace SPR measurements, with an association of 120 s and dissociation of 1200 s using a constant flow of 100 μl/min. The regeneration was performed using 30 μl of 4 mM Glycine pH 2. The signals (i.e. resonance unit (RU) values) of the interspots and a reference injection (i.e. injection of running buffer only) were subtracted from the RU traces obtained after injection of ankyrin repeat protein (double-referencing).

[3] = target: T4, biotinylated extracellular domain of human CD33 (SEQ ID NO: 87), Fc and Avi tagged (human, UniProt P20138 18-259, biotinylated with BirA-GST (Avi tag)); experiment: SPR (ProteOn XPR36), target on GLC chip, DARPin as analyte
T4 construct: also called hCD33; human target hCD33
T4 sequence (P20138 18-259 R69G): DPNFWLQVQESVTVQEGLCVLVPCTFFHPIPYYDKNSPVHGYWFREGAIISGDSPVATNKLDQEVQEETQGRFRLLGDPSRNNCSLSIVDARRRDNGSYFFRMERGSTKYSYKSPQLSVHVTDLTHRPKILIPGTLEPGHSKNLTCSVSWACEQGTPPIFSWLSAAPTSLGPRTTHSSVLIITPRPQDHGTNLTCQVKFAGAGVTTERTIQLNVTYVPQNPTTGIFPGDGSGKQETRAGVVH
Description: as §1, §2

[4] = target: T2, extracellular domain of human CD70 (SEQ …); experiment: as above
Description: as §1, §2

human serum albumin = target: T5, human serum albumin (human, UniProt P02768 25-609); experiment: as above
T5 construct: also called HSA; SA
T5 sequence (P02768 25-609 limits assumed): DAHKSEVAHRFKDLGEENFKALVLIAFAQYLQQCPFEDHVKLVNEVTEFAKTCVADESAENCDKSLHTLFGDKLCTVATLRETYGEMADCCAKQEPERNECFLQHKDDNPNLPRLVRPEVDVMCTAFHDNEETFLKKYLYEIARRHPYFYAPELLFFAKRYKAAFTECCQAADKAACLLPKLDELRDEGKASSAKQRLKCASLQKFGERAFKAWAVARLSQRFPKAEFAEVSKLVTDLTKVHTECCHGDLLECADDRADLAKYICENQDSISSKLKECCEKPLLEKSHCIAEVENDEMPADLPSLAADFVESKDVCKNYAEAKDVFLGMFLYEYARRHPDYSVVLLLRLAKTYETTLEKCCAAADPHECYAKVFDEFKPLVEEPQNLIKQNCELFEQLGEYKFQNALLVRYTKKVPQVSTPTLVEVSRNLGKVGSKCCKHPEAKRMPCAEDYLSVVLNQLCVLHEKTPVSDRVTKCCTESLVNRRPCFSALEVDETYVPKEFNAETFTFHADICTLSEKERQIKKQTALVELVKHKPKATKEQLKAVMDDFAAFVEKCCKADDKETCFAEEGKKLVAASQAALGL
Description: as §1, §2

EC50 [1] | Kd [3] | Kd [4] | Kd (human serum albumin) | Binder | binding result [2]
0.36 nM |  |  |  | DARPin® protein #62 (designed binder, HSA-HSA-CD70-CD33-CD123-CD3) DLGKKLLEAARAGQDDEVRELLKAGADVNAKDYFSHTPLHLAARNGHLKIVEVLLKAGADVNAKDFAGKTPLHLAAADGHLEIVEVLLKAGADVNAQDIFGKTPADIAADAGHEDIAEVLQKAAGSPTPTPTTPTPTPTTPTPTPTGSDLGKKLLEAARAGQDDEVRELLKAGADVNAKDYFSHTPLHLAARNGHLKIVEVLLKAGADVNAKDFAGKTPLHLAAADGHLEIVEVLLKAGADVNAQDIFGKTPADIAADAGHEDIAEVLQKAAGSPTPTPTTPTPTPTTPTPTPTGSDLGIKLLTAAYDGQLDEVRILLKAGADVNAKDLRGQTPLHYAAGLGHLEIVEVLLKAGADVNAKDLHGWTPLHLAAWSGHLEIVEVLLKAGADVNAQDVEGVTPADLAAVQGHQDIAEVLQKAAGSPTPTPTTPTPTPTTPTPTPTGSDLGVKLLLAAERGQLDEVRILLKAGADVNAKDIAEGYTPLHIAAYQGHLEIVEVLLKAGADVNAKDRYGKTPLHLAAIGGHLEIVEVLLKAGADVNAQDNKGSTPADLAADYGHQDIAEVLQKAAGSPTPTPTTPTPTPTTPTPTPTGSDLGKKLLEAALEGQLDEVRELLKAGADVNAKDQEGYTPLHLAAALGHLEIVEVLLKAGADVNAKDQIGRTPLHLAAYKGHLEIVEVLLKAGADVNAQDIIGQTPADLAAQRGHQDIAEVLQKAAGSPTPTPTTPTPTPTTPTPTPTGSDLGQKLLEAAWAGQDDEVRELLKAGADVNAKNSRGWTPLHTAAQTGHLEIFEVLLKAGADVNAKNDKRVTPLHLAAALGHLEIVEVLLKAGADVNARDSWGTTPADLAAKYGHQDIAEVLQKAA | 
 | 5.5 nM | 0.56 nM | 1.3 nM | DARPin® protein #51 (designed binder, HSA-HSA-CD70-CD33-CD3) MRGSHHHHHHDLGKKLLEAARAGQDDEVRELLKAGADVNAKDYFSHTPLHLAARNGHLKIVEVLLKAGADVNAKDFAGKTPLHLAAADGHLEIVEVLLKAGADVNAQDIFGKTPADIAADAGHEDIAEVLQKAAGSPTPTPTTPTPTPTTPTPTPTGSDLGKKLLEAARAGQDDEVRELLKAGADVNAKDYFSHTPLHLAARNGHLKIVEVLLKAGADVNAKDFAGKTPLHLAAADGHLEIVEVLLKAGADVNAQDIFGKTPADIAADAGHEDIAEVLQKAAGSPTPTPTTPTPTPTTPTPTPTGSDLGYKLLQAAYDGQLDEVRILLKAGADVNAKDSRGQTPLHYAASIGHLEIVEVLLKAGADVNAKDDHGWTPLHLAAWSGHLEIVEVLLKAGADVNAQDQEGTTPADLAAVQGHQDIAEVLQKAAGSPTPTPTTPTPTPTTPTPTPTGSDLGVKLLLAASRGQLDEVRILLKAGADVNAKDIDEGYTPLHIAAYYGHLEIVEVLLKAGADVNAKDRYGKTPLHLAAISGHLEIVEVLLKAGADVNAQDDKGDTPADLAADYGHQDIAEVLQKAAGSPTPTPTTPTPTPTTPTPTPTGSDLGQKLLEAAWAGQDDEVRELLKAGADVNAKNSRGWTPLHTAAQTGHLEIFEVLLKAGADVNAKDDKGVTPLHLAAALGHLEIVEVLLKAGADVNAQDSWGTTPADLAAKYGHEDIAEVLQKAA | no binding (tested: 100 nM (highest concentration))
0.13 nM |  |  |  | DARPin® protein #61 (designed binder, HSA-HSA-CD70-CD123-CD33-CD3) DLGKKLLEAARAGQDDEVRELLKAGADVNAKDYFSHTPLHLAARNGHLKIVEVLLKAGADVNAKDFAGKTPLHLAAADGHLEIVEVLLKAGADVNAQDIFGKTPADIAADAGHEDIAEVLQKAAGSPTPTPTTPTPTPTTPTPTPTGSDLGKKLLEAARAGQDDEVRELLKAGADVNAKDYFSHTPLHLAARNGHLKIVEVLLKAGADVNAKDFAGKTPLHLAAADGHLEIVEVLLKAGADVNAQDIFGKTPADIAADAGHEDIAEVLQKAAGSPTPTPTTPTPTPTTPTPTPTGSDLGKKLLQAARAGQLDEVRELLKAGADVNAKDQQGLTPLHIAANLGHLEIVEVLLKAGADVNAKDLFGLTPLHLAAFEGHLEIVEVLLKAGADVNAKDQHGATPLHLAAWVGHLEIVEVLLKAGADVNAQDKSGKTPADLAARAGHQDIAEVLQKAAGSPTPTPTTPTPTPTTPTPTPTGSDLGKKLLQAALEGQLDEVRELLKAGADVNAKDIEGYTPLHLAAALGHLEIVEVLLKAGADVNAKDQIGRTPLHLAAYKGHLEIVEVLLKAGADVNAQDIIGQTPADLAAQRGHQDIAEVLQKAAGSPTPTPTTPTPTPTTPTPTPTGSDLGKKLLLAAERGQLDEVRILLKAGADVNAKDRAEGYTPLHIAAYQGHLEIVEVLLKAGADVNAKDRYGKTPLHLAAISGHLEIVEVLLKAGADVNAQDNKGSTPADLAADYGHQDIAEVLQKAAGSPTGSDLGQKLLEAAWAGQDDEVRELLKAGADVNAKNSRGWTPLHTAAQTGHLEIFEVLLKAGADVNAKNDKRVTPLHLAAALGHLEIVEVLLKAGADVNARDSWGTTPADLAAKYGHQDIAEVLQKAA | 
 | 7.5 nM | 0.81 nM | 24 nM | DARPin® protein #50 (designed binder, HSA-CD70-CD33-CD3) MRGSHHHHHHDLGKKLLEAARAGQDDEVRELLKAGADVNAKDYFSHTPLHLAARNGHLKIVEVLLKAGADVNAKDFAGKTPLHLAAADGHLEIVEVLLKAGADVNAQDIFGKTPADIAADAGHEDIAEVLQKAAGSPTPTPTTPTPTPTTPTPTPTGSDLGYKLLQAAYDGQLDEVRILLKAGADVNAKDSRGQTPLHYAASIGHLEIVEVLLKAGADVNAKDDHGWTPLHLAAWSGHLEIVEVLLKAGADVNAQDQEGTTPADLAAVQGHQDIAEVLQKAAGSPTPTPTTPTPTPTTPTPTPTGSDLGVKLLLAASRGQLDEVRILLKAGADVNAKDIDEGYTPLHIAAYYGHLEIVEVLLKAGADVNAKDRYGKTPLHLAAISGHLEIVEVLLKAGADVNAQDDKGDTPADLAADYGHQDIAEVLQKAAGSPTPTPTTPTPTPTTPTPTPTGSDLGQKLLEAAWAGQDDEVRELLKAGADVNAKNSRGWTPLHTAAQTGHLEIFEVLLKAGADVNAKDDKGVTPLHLAAALGHLEIVEVLLKAGADVNAQDSWGTTPADLAAKYGHEDIAEVLQKAA | no binding (tested: 100 nM (highest concentration))
